B1: Friend leukemia integration 1 transcription factor, residues 116 to 197; numbered along this chain, Q01543 (parent)
chain: NMTTNERRVIVPADPTLWTQEHVRQWLEWAIKEYSLMEIDTSFFQNMDGKELCKMNKEDFLRATTLYNTEVLLSHLSYLRES

± gives the uncertainty stated by the source.

This data set covers variants of B1. Description: abundance fitness (aPCA) (normalised: wild type 0, dead -1); higher = more abundant; growth selection in yeast, the domain comes from the species named. The settings on record: Homo sapiens.
Regarding NMTTNERRVIVPADPTLWTQEHVRQWLEWAIKEYSLMEIDTSFFQNMDGKELCKMYKEDFLRATTLYNTEVLLSHLSYLRES [N56Y], the abundance fitness was -0.54 ± 0.25.

In the case of NFTTNERRVIVPADPTLWTQEHVRQWLEWAIKEYSLMEIDTSFFQNMDGKELCKMNKEDFLRATTLYNTEVLLSHLSYLRES [M2F], the abundance fitness is 0.092 ± 0.17.

For the variant NMTTNERRVIVPADPTLWTQEHVRQWLEWAIKETSLMEIDTSFFQNMDGKELCKMNKEDFLRATTLYNTEVLLSHLSYLRES [Y34T], the abundance fitness was -0.684 ± 0.17.

Regarding NMTTNERRVIVPADPTLWFQEHVRQWLEWAIKEYSLMEIDTSFFQNMDGKELCKMNKEDFLRATTLYNTEVLLSHLSYLRES [T19F], the abundance fitness was -0.79 ± 0.47.

With NMTTNERRVIVPADPTLWRQEHVRQWLEWAIKEYSLMEIDTSFFQNMDGKELCKMNKEDFLRATTLYNTEVLLSHLSYLRES [T19R], the abundance fitness is -0.12 ± 0.077.

As to NMTTNERRVIVPADPTLWTQEHVRQWLEWAIKEYSLMEIDTSFFQNMDGKELCKMNKEDFLRATTLYNTDVLLSHLSYLRES [E70D], the abundance fitness is 0.092 ± 0.12.

For the variant NMTTNERRVIVPADPTLWTQEHVRQWLEWAIKEYSLMEITTSFFQNMDGKELCKMNKEDFLRATTLYNTEVLLSHLSYLRES [D40T], the abundance fitness was -0.268 ± 0.12.

Regarding NMTTNERRVIVPADPTLWTQEHVRQWLEWAIKEYSLMEIDTSFFQNMDGKELCKMNLEDFLRATTLYNTEVLLSHLSYLRES [K57L], the abundance fitness was -0.213 ± 0.079.

Consider NMTTNERRVIVPADPTLWTQEHVSQWLEWAIKEYSLMEIDTSFFQNMDGKELCKMNKEDFLRATTLYNTEVLLSHLSYLRES [R24S], for which the abundance fitness stood at 0.093 ± 0.083.

Turning to NMTTNERRVIVVADPTLWTQEHVRQWLEWAIKEYSLMEIDTSFFQNMDGKELCKMNKEDFLRATTLYNTEVLLSHLSYLRES [P12V], the abundance fitness is -0.447 ± 0.1.

NMTTNERRVIVPADPTLWTQEHVRQWLEWAIKEYSLMEIDTSFFQNMDGKELCKMNKEDALRATTLYNTEVLLSHLSYLRES [F60A]: the abundance fitness was -0.75 ± 0.17.

With NMTTNERRVIVPADPTLWTQEHVRQWLEWAIKEYSLMEIDTSFFQNMDGKELCKMNKEDFLRATTLYNTEVLLAHLSYLRES [S74A], the abundance fitness worked out at 0.029 ± 0.1.

Turning to NMTTNERRVIVPADPTLWTQEHVRQWLEWAIKEYSLMEIDTSFFQNMDGKELCKMNKEDFLRATTLYNTEVLLMHLSYLRES [S74M], the abundance fitness was -0.049 ± 0.11.

Take NMTTNERRVIVPADPTLWTQEHVRQWLEWAIKEYSLMEIDTSFFQNVDGKELCKMNKEDFLRATTLYNTEVLLSHLSYLRES [M47V]: the abundance fitness was -0.093 ± 0.072.

In the case of NMTTNERRVIVPADPTLWTQEHVRQWLEWAIKEYSLMEIDTSFFQNMDGKELCKMNKEDFLRATTLYYTEVLLSHLSYLRES [N68Y], the abundance fitness is -0.797 ± 0.29.

Consider NMTTNERRVIVPADPTSWTQEHVRQWLEWAIKEYSLMEIDTSFFQNMDGKELCKMNKEDFLRATTLYNTEVLLSHLSYLRES [L17S], for which the abundance fitness stood at 0.008 ± 0.099.

As to NMTTNERRVIVPADPTLWTQEHVRQWLEWAIKEYSLMEIDTSFFQNMDGKELCKMNKEDFLRGTTLYNTEVLLSHLSYLRES [A63G], the abundance fitness was found to be 0.018 ± 0.052.

Regarding NMTTNERGVIVPADPTLWTQEHVRQWLEWAIKEYSLMEIDTSFFQNMDGKELCKMNKEDFLRATTLYNTEVLLSHLSYLRES [R8G], the abundance fitness is -0.52 ± 0.12.

In the case of NMTTNERRVIVPADPTLWTQEHVRQWLEWAIKEYSLMEIDTSFFQNMDGKRLCKMNKEDFLRATTLYNTEVLLSHLSYLRES [E51R], the abundance fitness was -0.084 ± 0.065.

As to NMTTNERRVIVPADPTLWTQEHVRQWLEWAIKEYSLMEIDTSFFQNMDGKMLCKMNKEDFLRATTLYNTEVLLSHLSYLRES [E51M], the abundance fitness was -0.1 ± 0.11.

For the variant NMTTNERRVIVPADPTLWTQEHVRQWLEWAIKEYSLMEIDTSFFQNMDGKELCKMNKECFLRATTLYNTEVLLSHLSYLRES [D59C], the abundance fitness is -0.046 ± 0.11.

Regarding NMTTNERRVIVPADPTLWTQEHVRQWLEWAIKEYSLMEIDTSFFQNMDGKELCKMNKEYFLRATTLYNTEVLLSHLSYLRES [D59Y], the abundance fitness is -0.045 ± 0.21.

With NMTTNERRVTVPADPTLWTQEHVRQWLEWAIKEYSLMEIDTSFFQNMDGKELCKMNKEDFLRATTLYNTEVLLSHLSYLRES [I10T], the abundance fitness is 0.092 ± 0.089.

For NMTTNERRVIVPADPTLWTQKHVRQWLEWAIKEYSLMEIDTSFFQNMDGKELCKMNKEDFLRATTLYNTEVLLSHLSYLRES [E21K], the abundance fitness is -0.243 ± 0.14.

Turning to NMTTNERRVIVPADPTLWTQQHVRQWLEWAIKEYSLMEIDTSFFQNMDGKELCKMNKEDFLRATTLYNTEVLLSHLSYLRES [E21Q], the abundance fitness amounted to 0.066 ± 0.11.

For the variant NMTTNERRVIVPADPTLWTQDHVRQWLEWAIKEYSLMEIDTSFFQNMDGKELCKMNKEDFLRATTLYNTEVLLSHLSYLRES [E21D], the abundance fitness was -0.084 ± 0.24.

As to NMTTNERRVIVPADPTLWTQAHVRQWLEWAIKEYSLMEIDTSFFQNMDGKELCKMNKEDFLRATTLYNTEVLLSHLSYLRES [E21A], the abundance fitness amounted to 0.017 ± 0.079.

For the variant NMTTNERRVIVPADPTLWTQEHVRQWLEWAIKEYSLMEIDTSFFQTMDGKELCKMNKEDFLRATTLYNTEVLLSHLSYLRES [N46T], the abundance fitness is 0.071 ± 0.099.

In the case of NMTTNERRVIVPADPTLWTQEHVRQWLEWAIKEYSLMEIDTSFFQNMDGKELAKMNKEDFLRATTLYNTEVLLSHLSYLRES [C53A], the abundance fitness is -0.222 ± 0.096.

With NMTTNERRVIVPADPTLWTQEHVRQWLEWAIKEYSLMEIDTSFFQNMDGKELFKMNKEDFLRATTLYNTEVLLSHLSYLRES [C53F], the abundance fitness was determined as 0.031 ± 0.13.

For NMTTNERRVIVPADPTLYTQEHVRQWLEWAIKEYSLMEIDTSFFQNMDGKELCKMNKEDFLRATTLYNTEVLLSHLSYLRES [W18Y], the abundance fitness was -0.759 ± 0.39.

For the variant NMTTSERRVIVPADPTLWTQEHVRQWLEWAIKEYSLMEIDTSFFQNMDGKELCKMNKEDFLRATTLYNTEVLLSHLSYLRES [N5S], the abundance fitness is -0.152 ± 0.1.

As to NMTTNERRVIVPADPTLWTQEHVRQWLEWAIKEYSLMEIDLSFFQNMDGKELCKMNKEDFLRATTLYNTEVLLSHLSYLRES [T41L], the abundance fitness was determined as 0.051 ± 0.063.

The record behind these values is the Human Domainome abundance scans (Beltran et al. 2025).
